Measurements: the supplement of paper PMC9112550, “Optimization of the antimicrobial peptide Bac7 by deep mutational scanning” (BMC Biology, 2022)

Test system: Escherichia coli TOP10
Assay: shrunken log2 fold change of peptide-encoding DNA abundance (4.5 h post-induction vs induction); higher = less antimicrobial activity (less host growth inhibition)
Conditions: time post-induction: 4.5 h; library: site-saturation at positions 5, 18, 19, 20
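Further: peptides expressed intracellularly from a pBAD plasmid library in pooled LB shake-flask culture, induced with 0.3% L-arabinose, DNA abundance read by NGS, three biological replicates, DESeq2 with apeglm shrinkage.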

Sequence | shrunken log2 fold change
RRIRLRPPRLPRPRPRPNWSPRP | -0.136
RRIRYRPPRLPRPRPRPLTKPRP | -0.281
RRIRLRPPRLPRPRPRPAEIPRP | -0.219
RRIRPRPPRLPRPRPRPCLSPRP | -0.143
RRIRHRPPRLPRPRPRPPQTPRP | -0.00347
RRIRYRPPRLPRPRPRPIMHPRP | -0.483
RRIRARPPRLPRPRPRPWEAPRP | 0.221
RRIRCRPPRLPRPRPRPLHQPRP | -0.168
RRIRERPPRLPRPRPRPNPIPRP | -0.213
RRIRRRPPRLPRPRPRPIKHPRP | 0.0383
RRIRARPPRLPRPRPRPILVPRP | -0.122
RRIRMRPPRLPRPRPRPGAPPRP | 1.31
RRIRTRPPRLPRPRPRPNDTPRP | -0.387
RRIRERPPRLPRPRPRPHREPRP | -0.0302
RRIRHRPPRLPRPRPRPVEQPRP | 0.0184
RRIRPRPPRLPRPRPRPMYIPRP | -0.0479
RRIRARPPRLPRPRPRPHNPPRP | 0.0946
RRIRSRPPRLPRPRPRPELCPRP | -0.0749
RRIRIRPPRLPRPRPRPQMPPRP | -0.662
RRIRCRPPRLPRPRPRPEHVPRP | 0.229
RRIRIRPPRLPRPRPRPEMFPRP | 0.0821
RRIRGRPPRLPRPRPRPRMCPRP | 0.197
RRIRFRPPRLPRPRPRPAMNPRP | -0.102
RRIRNRPPRLPRPRPRPIDDPRP | 0.00709
RRIRARPPRLPRPRPRPWQKPRP | -0.0111

Sequence | shrunken log2 fold change
RRIRYRPPRLPRPRPRPMRIPRP | 0.0121
RRIRPRPPRLPRPRPRPFNAPRP | -0.287
RRIRTRPPRLPRPRPRPNFYPRP | -0.186
RRIRWRPPRLPRPRPRPPKWPRP | 0.627
RRIRTRPPRLPRPRPRPMFFPRP | -0.204
RRIRNRPPRLPRPRPRPTFKPRP | -0.175
RRIRSRPPRLPRPRPRPCHMPRP | -0.233
RRIRARPPRLPRPRPRPHEKPRP | 0.358
RRIRMRPPRLPRPRPRPREIPRP | 1.35
RRIRSRPPRLPRPRPRPKRNPRP | 0.228
RRIRPRPPRLPRPRPRPRGYPRP | 0.523
RRIRGRPPRLPRPRPRPHRMPRP | -0.101
RRIRDRPPRLPRPRPRPLVHPRP | 0.265
RRIRNRPPRLPRPRPRPRKWPRP | 0.416
RRIRIRPPRLPRPRPRPTSIPRP | -0.182
RRIRFRPPRLPRPRPRPEYHPRP | -0.202
RRIRVRPPRLPRPRPRPDSEPRP | -0.105
RRIRFRPPRLPRPRPRPSRRPRP | -0.0576
RRIRIRPPRLPRPRPRPRGRPRP | 0.229
RRIRTRPPRLPRPRPRPSSQPRP | -0.153
RRIRRRPPRLPRPRPRPRYTPRP | -0.186
RRIRDRPPRLPRPRPRPHKGPRP | 0.0993
RRIRHRPPRLPRPRPRPVTRPRP | -0.00217
RRIRPRPPRLPRPRPRPPCCPRP | -0.0155
RRIRSRPPRLPRPRPRPLGCPRP | 0.285

Sequence | shrunken log2 fold change
RRIRERPPRLPRPRPRPEYHPRP | -0.242
RRIRFRPPRLPRPRPRPYKTPRP | -0.166
RRIRIRPPRLPRPRPRPWLKPRP | 4.66
RRIRCRPPRLPRPRPRPSRRPRP | -0.181
RRIRLRPPRLPRPRPRPSYMPRP | -0.802
RRIRRRPPRLPRPRPRPRMFPRP | 0.556
RRIRNRPPRLPRPRPRPPWNPRP | 0.0711
RRIRVRPPRLPRPRPRPDCKPRP | -0.104
RRIRMRPPRLPRPRPRPVEKPRP | 1.01
RRIRNRPPRLPRPRPRPAKNPRP | 0.0221
RRIRGRPPRLPRPRPRPNFRPRP | -0.00192
RRIRMRPPRLPRPRPRPIIKPRP | -0.265
RRIRCRPPRLPRPRPRPCMPPRP | -0.66
RRIRWRPPRLPRPRPRPIPNPRP | -0.262
RRIRYRPPRLPRPRPRPQQMPRP | -0.232
RRIRLRPPRLPRPRPRPYKDPRP | -0.269
RRIRDRPPRLPRPRPRPCLYPRP | 0.0504
RRIRKRPPRLPRPRPRPFYMPRP | -0.117
RRIRLRPPRLPRPRPRPQYKPRP | -1.05
RRIRMRPPRLPRPRPRPARLPRP | 0.201
RRIRLRPPRLPRPRPRPEPFPRP | -0.0343
RRIRWRPPRLPRPRPRPRCQPRP | -0.0289
RRIRRRPPRLPRPRPRPCCLPRP | 0.0396
RRIRYRPPRLPRPRPRPGNQPRP | -0.252
RRIRPRPPRLPRPRPRPEHAPRP | 0.197

Sequence | shrunken log2 fold change
RRIRYRPPRLPRPRPRPHWLPRP | -0.0432
RRIRVRPPRLPRPRPRPWARPRP | 0.416
RRIRDRPPRLPRPRPRPRQLPRP | 0.185
RRIRLRPPRLPRPRPRPMCKPRP | 0.0258
RRIRRRPPRLPRPRPRPSCWPRP | 0.285
RRIRERPPRLPRPRPRPWKAPRP | 0.0158
RRIRDRPPRLPRPRPRPYPIPRP | 0.0369
RRIRHRPPRLPRPRPRPFQTPRP | -0.183
RRIRWRPPRLPRPRPRPFDTPRP | -0.113
RRIRNRPPRLPRPRPRPGQYPRP | 0.0262
RRIRKRPPRLPRPRPRPDQSPRP | 0.0875
RRIRFRPPRLPRPRPRPKNNPRP | -0.504
RRIRMRPPRLPRPRPRPWKFPRP | 0.0673
RRIRIRPPRLPRPRPRPGEDPRP | 0.00101
RRIRHRPPRLPRPRPRPGRMPRP | -0.313
RRIRLRPPRLPRPRPRPTKEPRP | -0.0767
RRIRTRPPRLPRPRPRPWHSPRP | -0.274
RRIRFRPPRLPRPRPRPIHLPRP | -0.154
RRIRKRPPRLPRPRPRPMVTPRP | 0.231
RRIRRRPPRLPRPRPRPEGDPRP | 0.956
RRIRWRPPRLPRPRPRPHLSPRP | -0.154
RRIRERPPRLPRPRPRPWRWPRP | 0.0174
RRIRFRPPRLPRPRPRPRIDPRP | -0.0186
RRIRQRPPRLPRPRPRPNSCPRP | 0.0314
RRIRWRPPRLPRPRPRPWQGPRP | -0.11

Sequence | shrunken log2 fold change
RRIRNRPPRLPRPRPRPDPNPRP | -0.488
RRIRYRPPRLPRPRPRPCLVPRP | -0.0874
RRIRNRPPRLPRPRPRPSTVPRP | -0.103
RRIRIRPPRLPRPRPRPVPTPRP | 0.0576
RRIRNRPPRLPRPRPRPCWRPRP | -0.174
RRIRIRPPRLPRPRPRPWPMPRP | 0.0828
RRIRERPPRLPRPRPRPHKRPRP | 3.62
RRIRVRPPRLPRPRPRPFICPRP | -0.331
RRIRERPPRLPRPRPRPKKSPRP | -0.182
RRIRARPPRLPRPRPRPYCGPRP | -0.192
RRIRARPPRLPRPRPRPGVYPRP | 0.011
RRIRSRPPRLPRPRPRPKSHPRP | -0.158
RRIRNRPPRLPRPRPRPYWMPRP | -0.26
RRIRHRPPRLPRPRPRPQTLPRP | -0.313
RRIRFRPPRLPRPRPRPCWAPRP | 0.105
RRIRARPPRLPRPRPRPYERPRP | 0.0697
RRIRRRPPRLPRPRPRPGDPPRP | 0.593
RRIRPRPPRLPRPRPRPEFIPRP | -0.117
RRIRMRPPRLPRPRPRPYQKPRP | -0.0182
RRIRVRPPRLPRPRPRPICGPRP | 0.0607
RRIRQRPPRLPRPRPRPKDRPRP | -0.115
RRIRYRPPRLPRPRPRPTDDPRP | 0.0131
RRIRPRPPRLPRPRPRPSILPRP | -0.0331
RRIRPRPPRLPRPRPRPANCPRP | 0.0263
RRIRVRPPRLPRPRPRPSPRPRP | 0.415

Sequence | shrunken log2 fold change
RRIRQRPPRLPRPRPRPPTYPRP | -0.0183
RRIRSRPPRLPRPRPRPNRKPRP | -0.596
RRIRKRPPRLPRPRPRPRIWPRP | 0.434
RRIRVRPPRLPRPRPRPCLSPRP | -0.153
RRIRWRPPRLPRPRPRPDQMPRP | 0.128
RRIRGRPPRLPRPRPRPQYWPRP | 0.122
RRIRDRPPRLPRPRPRPFTKPRP | -0.262
RRIRNRPPRLPRPRPRPYCHPRP | -0.72
RRIRFRPPRLPRPRPRPKCGPRP | 0.0559
RRIRVRPPRLPRPRPRPGIGPRP | 0.344
RRIRKRPPRLPRPRPRPFSFPRP | 0.0267
RRIRIRPPRLPRPRPRPKGSPRP | 0.00745
RRIRRRPPRLPRPRPRPEWPPRP | 0.387
RRIRHRPPRLPRPRPRPSPSPRP | 0.00467
RRIRTRPPRLPRPRPRPCFYPRP | -0.351
RRIRCRPPRLPRPRPRPAIDPRP | -0.0121
RRIRCRPPRLPRPRPRPDQPPRP | 0.171
RRIRYRPPRLPRPRPRPICSPRP | 0.0329
RRIRERPPRLPRPRPRPEGLPRP | -0.00749
RRIRIRPPRLPRPRPRPYLWPRP | -0.156
RRIRGRPPRLPRPRPRPTWVPRP | 0.493
RRIRSRPPRLPRPRPRPPYYPRP | -0.174
RRIRERPPRLPRPRPRPAEQPRP | -0.163
RRIRIRPPRLPRPRPRPYRYPRP | -0.127
RRIRYRPPRLPRPRPRPTLEPRP | -0.136
